Six molecules from patent publication US20250325718A1, “IMMUNOCONJUGATES COMPRISING KALLIKREIN RELATED PEPTIDASE 2 ANTIGEN BINDING DOMAINS AND THEIR USES” (Janssen Biotech, Inc., priority 2021, published 2025) can be followed below.

A short description of series [1]: Thermal stability by Differential Scanning Fluorimetry (NanoDSF). In kind it is physicochemical. The settings on record: 0.5 mg/mL in Phosphate Buffered Saline pH 7.4, 20-95 ° C. at 1.0 ° C./minute. As to the method: Thermal stability was determined by Differential Scanning Fluorimetry (NanoDSF) using an automated Prometheus instrument. NanoDSF was used to measure Tm of molecules at a concentration of 0.5 mg/mL in Phosphate Buffered Saline, pH 7.4. Measurements were made by loading samples into 24 well capillary from a 384 well sample plate. Duplicate runs were performed for each sample. The thermal scans span from 20° C., to 95° C. at a rate of 1.0° C./minute. Intrinsic tryptophan and tyrosine fluorescence were monitored at the emission wavelengths of 330 nm and 350 nm, and the F350/F330 nm ratio were plotted against temperature to generate unfolding curves.
In general terms: DSF heats the sample and reads unfolding from a dye or from intrinsic fluorescence.

The next series concerns the target soluble hK2 (Homo sapiens, UniProt P20151). Description: Affinity of hK2 antibodies for soluble hK2 by surface plasmon resonance (SPR). The settings on record: antibody captured on anti-Fc chip, soluble hK2 injected, 1:1 Langmuir fit, KD = koff/kon. The class given is binding. On the procedure: Affinity of selected hK2 antibodies for soluble hK2 was measured by surface plasmon resonance (SPR). SPR is a label-free technique to study the strength of an interaction between two binding partners by measuring the change in mass upon complex formation and dissociation. Antibodies were captured on a sensor chip coated with an anti-Fc antibody followed by injection of soluble hK2 at various concentrations and specified association and dissociation times. Post dissociation, the surface was regenerated with an appropriate solution to prepare for the next interaction. Kinetic information (on-rate and off-rate constants) were extracted by fitting sensorgrams to the 1:1 Langmuir model. Binding affinity (KD) are reported as the ratio of rate constants (koff/kon).

The test system of another series is hK2-positive VCaP cells. The experiment in a line: Target cell binding by flow cytometry, hK2-positive cells. In kind it is cell-based. Particulars: 4° C. 60 minutes, anti-Human F(ab′)2 secondary detection, live cells. From the text:
To evaluate target cell binding of the KL2B30 Fab with different conjugation variants, VCaP cells were used as hK2-positive target cells and DU145 cells were used as hK2-negative cells. KL2B30 parental antibody (comprising a heavy chain and light chain of SEQ ID NO: 210 and SEQ ID NO: 221, respectively) and hul1B6 (an anti-hK2 antibody, also referred to herein as h11B6, comprising a heavy chain and light chain of SEQ ID NO: 203 and SEQ ID NO: 215, respectively) were included as positive controls. The h11B6 antibody is described in U.S. Pat. No. 10,100,125, which is incorporated by reference herein. An anti-Human F(ab′)2 fragment specific secondary detection antibody was used for detecting Fab-based binding. Test antibodies were incubated with target cells at 4° C. for 60 minutes and detected by secondary staining. Cell binding was quantified by flow cytometry based on secondary antibody binding signal and gated from on live cells.
For orientation: In flow cytometry, cells or beads pass a laser one at a time.

Sequence of soluble hK2 (P20151 25-261): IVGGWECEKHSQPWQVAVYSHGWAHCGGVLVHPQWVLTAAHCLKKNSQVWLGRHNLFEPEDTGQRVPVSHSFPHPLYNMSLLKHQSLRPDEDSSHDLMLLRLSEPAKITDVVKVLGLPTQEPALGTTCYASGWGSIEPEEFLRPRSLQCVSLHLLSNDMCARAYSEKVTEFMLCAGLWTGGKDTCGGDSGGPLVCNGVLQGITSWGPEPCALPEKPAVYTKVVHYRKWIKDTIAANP

B1: KL2B53 (Fab): anti-hK2 antibody; VH SEQ ID NO: 164, VL SEQ ID NO: 165 (antibody, V domains shown)
VH: EVQLVESGGGVVQPGRSLRLSCVASGFTFSSYDIHWVRQAPGKGLEWVAIISYDGSKKDYTDSVKGRFTISRDNSKNTLYLQMDSLRVEDSAVYSCARESGWSHYYYYGMDVWGQGTMVTVSS
VL: DIVMTQSPSSLSASVGDRVTITCRASQDISNYLAWYQQKPGKVPKFLIYAASTLHSGVPSRFSGSGSGTDFTLTISSLQPEDVATYYCQKYNSAPYTFGQGTRLEIK
For the molecule B1, the “Tm (° C.)” value in series [1] was over 70 °C.

B2: KL2B413 (scFv-LH-Fc): anti-hK2 antibody from Ablexis mice immunization; VH SEQ ID NO: 137, VL SEQ ID NO: 138 (protein)
chain 1: EVQLVESGGGLVQPGGSLRLSCAASGFTFSSYWMTWVRQAPGKGLEWVANIKQDGSERYYVDSVKGRFTISRDNAKNSLYLQMNSLRAEDTAVYYCARDQNYDILTGHYGMDVWGQGTTVTVSS
chain 2: EIVLTQSPSFLSASVGDRVTITCRASQGISSYLSWYQQKPGKAPKLLIYATSTLQSGVPSRFSGSGSGTEFTLTISSLQPEDFATYYCQQLNSYPRTFGQGTKVEIK
As for B2, the results for the Kd in the series with soluble hK2 and with soluble hK2 (listed as KL2B413 scFv) were 34.3 nM and about 34 nM, respectively.

B3: KL2B997 SORT: KL2B997 site-specific ADC prepared via the sortase tag with Gly3-vcMMAF (conjugate)
heavy: QVQLQESGPGLVKPSETLSLTCTVSGGSISSYYWSWIRQPPGKGLEWIGYIYYSGSTNYNPSLKSRVTISVDTSKNQFSLKLSSVTAADTAVYYCAGTTIFGVVTPNFYYGMDVWGQGTTVTVSS
light: DIQMTQSPSFLSASVGDRVTITCRASQGISSYLAWYQQKPGKAPKFLIYAASTLQSGVPSRFSGSGSGTEFTLTISSLQPEDFATYYCQQLNSYPLTFGGGTKVEIK
modifications: left off: a dimerising Fc or GST; large carriers
notes: KL2B997 site-specific ADC prepared via the sortase tag with Gly3-vcMMAF
For the molecule B3, the “cell binding to hK2-positive VCaP cells” value with hK2-positive VCaP cells is “positive and dose-dependent cell binding”.

B4: KL2B467 (Fab): anti-hK2 antibody from OmniRat immunization; VH SEQ ID NO: 168, VL SEQ ID NO: 169 (antibody, V domains shown)
VH: QVQLVESGGGVVQPGRSLRLSCAASGFTFSYYGMHWVRQAPGKGLEWVAFISYDGSNKYYADSVKGRFTISRDNSKNTLYLQMNSLRAEDTAVYYCAHLPYSGSYWAFDYWGQGTQVTVSS
VL: QSVLTQPPSVSVAPGQTASITCGGDNIGSKSVHWYQQKPGQAPVLVVYDNSDRPSGIPERFSGSNSGTTATLTISRVEAGDEADYYCQVWDSSSDHPVVFGGGTKVTV
Take B4: in series [1], the “Tm (° C.)” value was over 70 °C.

B5: KL2B359 (scFv-LH-Fc): anti-hK2 clone from the re-humanization campaign of 11B6; VH SEQ ID NO: 139, VL SEQ ID NO: 140 (protein)
scFv: EIVLTQSPATLSLSPGERATLSCRASESVEYFGTSLMHWYQQKPGQPPRLLIYAASNVESGIPARFSGSGSGTDFTLTISSVEPEDFAVYFCQQTRKVPYTFGGGTKVEIKGGSEGKSSGSGSESKSTGGSQVQLQESGPGLVKPSQTLSLTCTVSGNSITSDYAWNWIRQFPGKRLEWIGYISYSGSTTYNPSLKSRVTISRDTSKNQFSLKLSSVTAADTAVYYCATGYYYGSGFWGQGTLVTVSS
modifications: left off: a dimerising Fc or GST; small tags and cut ends
On to B5, for which the “Tm (° C.)” value in series [1] turned out to be 67 °C.

B6: KL2B242 (Fab): anti-hK2 antibody; VH SEQ ID NO: 166, VL SEQ ID NO: 167 (antibody, V domains shown)
VH: QVQLQESGPGLVKPSETLSLTCTVSGGSISSYYWSWLRQPAGSGLEWIGRLYVSGFTNYNPSLKSRVTLSLDPSRNQLSLKLSSVTAADTAVYYCAGDSGNYWGWFDPWGQGTLVTVSS
VL: SYELTQPPSVSVSPGETASITCSGDQLGENYACWYQQKPGQSPVLVIYQDSKRPSGIPERFSGSNSGNTATLTISGTQALDEADYYCQAWDNSIVVFGGGTKLTVL
On to B6, for which, in series [1], the “Tm (° C.)” value is over 70 °C.

What is called Kd is the concentration at which binding is half-saturated. Low readings indicate higher affinity, high ones lower affinity.
